In the supplement of paper PMC10065799, “High-throughput profiling of sequence recognition by tyrosine kinases and SH2 domains using bacterial peptide display” (eLife, 2023):

What was measured:
c-Src SH2 = assay: SH2 binding enrichment of the phosphorylated peptide, bacterial display (enrichment ratio); higher = better substrate or ligand; peptides without Tyr show the background
Grb2 SH2 = Grb2 SH2 (UniProt P62993); assay: as above
SHP2-C SH2 = assay: as above
Fer (mouse) = assay: phosphorylation enrichment, bacterial display (enrichment ratio); higher = better substrate or ligand; peptides without Tyr show the background
Fyn = Fyn (UniProt P06241); assay: as above
Sequence of Fyn (P06241 whole entry, looked up): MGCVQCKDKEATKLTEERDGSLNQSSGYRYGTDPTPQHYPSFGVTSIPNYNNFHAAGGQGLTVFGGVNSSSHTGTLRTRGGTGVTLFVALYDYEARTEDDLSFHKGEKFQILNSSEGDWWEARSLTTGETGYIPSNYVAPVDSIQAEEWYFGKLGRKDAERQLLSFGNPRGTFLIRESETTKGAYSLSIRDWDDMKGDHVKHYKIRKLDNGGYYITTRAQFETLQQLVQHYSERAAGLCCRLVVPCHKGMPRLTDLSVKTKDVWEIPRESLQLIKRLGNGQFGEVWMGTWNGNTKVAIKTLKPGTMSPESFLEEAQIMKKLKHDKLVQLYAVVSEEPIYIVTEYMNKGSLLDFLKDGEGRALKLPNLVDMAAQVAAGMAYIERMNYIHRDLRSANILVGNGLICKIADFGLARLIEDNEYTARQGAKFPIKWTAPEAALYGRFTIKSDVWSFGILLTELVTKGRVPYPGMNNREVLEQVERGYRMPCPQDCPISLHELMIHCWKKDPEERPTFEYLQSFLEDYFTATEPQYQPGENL

EPHB1 = EPHB1 (UniProt P54762); assay: as above
FGFR1 = FGFR1 (UniProt P11362); assay: as above
Sequence of FGFR1 (P11362 whole entry, looked up): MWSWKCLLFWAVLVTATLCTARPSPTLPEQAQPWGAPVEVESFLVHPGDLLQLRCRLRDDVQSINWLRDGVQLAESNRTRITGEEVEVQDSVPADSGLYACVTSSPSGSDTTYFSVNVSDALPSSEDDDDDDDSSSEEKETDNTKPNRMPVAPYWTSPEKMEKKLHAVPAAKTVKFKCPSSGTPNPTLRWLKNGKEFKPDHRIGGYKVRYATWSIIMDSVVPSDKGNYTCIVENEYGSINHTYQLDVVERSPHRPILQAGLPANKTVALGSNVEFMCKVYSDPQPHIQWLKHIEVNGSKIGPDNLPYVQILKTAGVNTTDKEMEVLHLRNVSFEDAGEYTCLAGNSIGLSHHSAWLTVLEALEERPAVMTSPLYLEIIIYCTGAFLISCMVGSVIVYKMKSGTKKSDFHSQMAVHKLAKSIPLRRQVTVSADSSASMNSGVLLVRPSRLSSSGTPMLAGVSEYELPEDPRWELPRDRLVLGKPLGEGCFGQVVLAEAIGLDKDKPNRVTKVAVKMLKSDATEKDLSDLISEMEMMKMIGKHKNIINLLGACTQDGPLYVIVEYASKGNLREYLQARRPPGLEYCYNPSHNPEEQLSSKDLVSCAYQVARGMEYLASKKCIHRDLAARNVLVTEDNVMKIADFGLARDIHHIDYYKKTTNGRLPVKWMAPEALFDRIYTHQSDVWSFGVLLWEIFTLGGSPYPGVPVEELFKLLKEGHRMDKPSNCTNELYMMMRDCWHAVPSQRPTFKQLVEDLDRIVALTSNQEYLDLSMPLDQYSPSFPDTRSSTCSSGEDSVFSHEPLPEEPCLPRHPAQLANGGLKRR

EPHB2 = EPHB2 (UniProt P29323); assay: as above
AncSZ = assay: as above
Hck = Hck (UniProt P08631); assay: as above
Sequence of Hck (P08631 whole entry, looked up): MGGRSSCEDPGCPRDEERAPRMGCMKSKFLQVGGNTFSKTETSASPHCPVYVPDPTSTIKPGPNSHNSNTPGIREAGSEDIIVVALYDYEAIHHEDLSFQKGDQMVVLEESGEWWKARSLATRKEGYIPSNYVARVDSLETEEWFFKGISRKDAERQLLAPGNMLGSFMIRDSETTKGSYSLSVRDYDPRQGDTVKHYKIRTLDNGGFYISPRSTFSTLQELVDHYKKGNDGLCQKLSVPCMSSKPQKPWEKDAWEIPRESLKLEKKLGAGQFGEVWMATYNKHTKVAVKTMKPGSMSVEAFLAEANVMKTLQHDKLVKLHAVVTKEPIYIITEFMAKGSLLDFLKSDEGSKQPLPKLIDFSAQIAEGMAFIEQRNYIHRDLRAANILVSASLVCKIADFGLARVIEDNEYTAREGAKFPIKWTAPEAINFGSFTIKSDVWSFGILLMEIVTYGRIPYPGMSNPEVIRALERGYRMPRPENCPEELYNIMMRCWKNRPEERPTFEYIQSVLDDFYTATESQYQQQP

c-Src = assay: as above
c-Abl (mouse) = assay: as above
MERTK = MERTK (UniProt Q12866); assay: as above
Sequence of MERTK (Q12866 whole entry, looked up): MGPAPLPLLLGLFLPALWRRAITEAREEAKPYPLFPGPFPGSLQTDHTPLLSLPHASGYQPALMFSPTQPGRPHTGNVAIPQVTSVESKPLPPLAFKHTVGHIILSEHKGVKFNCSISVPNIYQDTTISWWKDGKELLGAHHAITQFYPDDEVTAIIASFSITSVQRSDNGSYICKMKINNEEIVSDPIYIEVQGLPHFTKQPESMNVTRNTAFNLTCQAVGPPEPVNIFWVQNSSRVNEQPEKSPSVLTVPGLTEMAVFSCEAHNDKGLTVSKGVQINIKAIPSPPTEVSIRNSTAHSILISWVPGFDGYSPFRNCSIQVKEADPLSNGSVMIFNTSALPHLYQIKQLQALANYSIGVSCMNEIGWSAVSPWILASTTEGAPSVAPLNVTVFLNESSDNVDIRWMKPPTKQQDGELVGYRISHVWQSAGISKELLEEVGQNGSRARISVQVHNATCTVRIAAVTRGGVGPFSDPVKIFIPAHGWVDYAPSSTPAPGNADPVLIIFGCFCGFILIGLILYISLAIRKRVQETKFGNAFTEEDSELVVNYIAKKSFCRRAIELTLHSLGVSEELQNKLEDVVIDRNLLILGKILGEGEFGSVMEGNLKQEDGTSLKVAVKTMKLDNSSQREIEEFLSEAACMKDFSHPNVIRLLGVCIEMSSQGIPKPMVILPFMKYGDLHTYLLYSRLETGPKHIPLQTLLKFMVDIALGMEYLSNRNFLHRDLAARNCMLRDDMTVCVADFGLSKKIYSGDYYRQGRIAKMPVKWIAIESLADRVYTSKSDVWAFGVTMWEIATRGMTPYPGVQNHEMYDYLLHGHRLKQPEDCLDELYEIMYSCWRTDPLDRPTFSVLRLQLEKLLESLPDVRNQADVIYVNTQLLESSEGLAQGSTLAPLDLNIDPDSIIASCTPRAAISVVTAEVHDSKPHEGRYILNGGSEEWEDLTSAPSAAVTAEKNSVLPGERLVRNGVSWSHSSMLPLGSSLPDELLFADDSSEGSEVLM

Jak2 = Jak2 (UniProt O60674); assay: as above
Sequence of Jak2 (O60674 whole entry, looked up): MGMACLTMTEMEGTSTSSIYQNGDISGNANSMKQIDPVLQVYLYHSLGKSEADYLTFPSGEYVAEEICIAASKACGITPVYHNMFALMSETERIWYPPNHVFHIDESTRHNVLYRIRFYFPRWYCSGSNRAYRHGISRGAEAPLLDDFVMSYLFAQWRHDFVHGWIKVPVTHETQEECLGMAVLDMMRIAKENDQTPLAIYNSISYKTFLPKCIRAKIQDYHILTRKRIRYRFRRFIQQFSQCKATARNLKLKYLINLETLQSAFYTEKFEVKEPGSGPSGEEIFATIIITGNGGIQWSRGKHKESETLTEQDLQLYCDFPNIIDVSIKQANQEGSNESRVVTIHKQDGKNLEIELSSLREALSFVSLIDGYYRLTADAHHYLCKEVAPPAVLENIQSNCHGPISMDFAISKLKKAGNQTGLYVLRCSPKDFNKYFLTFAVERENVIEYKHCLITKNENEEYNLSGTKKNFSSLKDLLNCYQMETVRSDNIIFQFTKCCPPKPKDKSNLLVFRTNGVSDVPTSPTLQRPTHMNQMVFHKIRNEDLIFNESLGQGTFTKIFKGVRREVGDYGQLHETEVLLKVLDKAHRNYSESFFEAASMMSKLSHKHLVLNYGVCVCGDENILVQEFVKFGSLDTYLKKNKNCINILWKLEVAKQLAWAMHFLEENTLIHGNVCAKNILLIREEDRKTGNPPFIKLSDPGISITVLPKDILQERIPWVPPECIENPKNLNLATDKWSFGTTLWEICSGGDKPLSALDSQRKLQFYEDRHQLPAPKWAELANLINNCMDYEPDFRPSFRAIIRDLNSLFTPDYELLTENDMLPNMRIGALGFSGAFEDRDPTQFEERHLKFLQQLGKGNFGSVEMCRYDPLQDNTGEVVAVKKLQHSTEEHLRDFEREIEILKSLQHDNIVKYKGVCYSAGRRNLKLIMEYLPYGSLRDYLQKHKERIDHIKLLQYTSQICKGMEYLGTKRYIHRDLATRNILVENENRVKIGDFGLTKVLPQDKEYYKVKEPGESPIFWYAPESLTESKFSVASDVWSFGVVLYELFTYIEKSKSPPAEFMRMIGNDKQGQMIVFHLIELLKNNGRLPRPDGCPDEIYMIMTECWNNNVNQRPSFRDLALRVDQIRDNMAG

Fes = Fes (UniProt P07332); assay: as above
Sequence of Fes (P07332 whole entry, looked up): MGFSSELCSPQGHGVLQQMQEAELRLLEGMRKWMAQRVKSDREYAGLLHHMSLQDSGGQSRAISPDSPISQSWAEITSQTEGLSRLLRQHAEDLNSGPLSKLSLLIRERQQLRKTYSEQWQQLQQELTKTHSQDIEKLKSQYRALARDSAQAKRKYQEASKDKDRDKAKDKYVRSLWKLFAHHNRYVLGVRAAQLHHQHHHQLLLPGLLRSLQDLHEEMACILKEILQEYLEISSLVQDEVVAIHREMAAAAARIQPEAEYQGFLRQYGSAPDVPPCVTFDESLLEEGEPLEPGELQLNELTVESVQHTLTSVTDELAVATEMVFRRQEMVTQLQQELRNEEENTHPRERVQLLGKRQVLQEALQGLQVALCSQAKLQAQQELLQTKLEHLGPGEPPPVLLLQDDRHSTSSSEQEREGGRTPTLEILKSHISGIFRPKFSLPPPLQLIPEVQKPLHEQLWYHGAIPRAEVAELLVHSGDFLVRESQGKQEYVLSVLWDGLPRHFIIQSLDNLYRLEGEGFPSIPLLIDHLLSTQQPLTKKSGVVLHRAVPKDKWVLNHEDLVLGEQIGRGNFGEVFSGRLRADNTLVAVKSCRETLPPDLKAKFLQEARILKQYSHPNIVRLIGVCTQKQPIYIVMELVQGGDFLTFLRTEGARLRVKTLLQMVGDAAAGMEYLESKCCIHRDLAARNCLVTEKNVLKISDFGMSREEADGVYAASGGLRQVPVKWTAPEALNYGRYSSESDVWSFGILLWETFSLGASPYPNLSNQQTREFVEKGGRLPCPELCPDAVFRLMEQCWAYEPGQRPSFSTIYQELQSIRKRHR

FGFR3 = FGFR3 (UniProt P22607); assay: as above
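Throughout, for SH2 binding enrichment of the phosphorylated peptide, bacterial display: peptide library displayed on the E. coli surface as eCPX fusions, selected cells deep-sequenced, score is each peptide's frequency after selection divided by its frequency in the input.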
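Throughout, for phosphorylation enrichment, bacterial display: 11-residue human phosphosite peptides and single-mutation variants displayed on the E. coli surface, counted by deep sequencing, each peptide's frequency after selection divided by its frequency in the unselected input library; frequency after pTyr selection over input frequency; kinase dosed for 20-30% of maximal phosphorylation in three min.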

| SH2 binding enrichment (c-Src SH2) | SH2 binding enrichment (Grb2 SH2) | SH2 binding enrichment (SHP2-C SH2) | Sequence | phosphorylation enrichment (Fer (mouse)) | phosphorylation enrichment (Fyn) | phosphorylation enrichment (EPHB1) | phosphorylation enrichment (FGFR1) | phosphorylation enrichment (EPHB2) | phosphorylation enrichment (AncSZ) | phosphorylation enrichment (Hck) | phosphorylation enrichment (c-Src) | phosphorylation enrichment (c-Abl (mouse)) | phosphorylation enrichment (MERTK) | phosphorylation enrichment (Jak2) | phosphorylation enrichment (Fes) | phosphorylation enrichment (FGFR3) |
| --- | --- | --- | --- | --- | --- | --- | --- | --- | --- | --- | --- | --- | --- | --- | --- | --- |
| 0.602 | 0.908 | 0.974 | LIPIKYKAMKK [MYD88_Y257] | 0.405 | 0.489 | 0.55 | 0.755 | 0.384 | 0.388 | 0.342 | 0.302 | 0.325 | 0.413 | 0.297 | 0.96 | 0.92 |
| 0.503 | 1.09 | 0.568 | LIYTNYEAGKD [GSTP1_Y112] | 5.02 | 7.8 | 6.63 | 1.78 | 8.11 | 1.23 | 5.36 | 7.03 | 7.84 | 7.41 | 0.88 | 1.01 | 1.64 |
| 0.713 | 1.25 | 0.641 | LKVKAYRFSIS [LCT_Y974] | 0.52 | 0.648 | 0.672 | 0.9 | 0.498 | 0.911 | 0.6 | 0.463 | 0.824 | 0.493 | 1.3 | 1.22 | 0.835 |
| 0.475 | 0.827 | 0.566 | LLSVAYKNVVR [YWHAZ_Y48_G53R] | 0.55 | 0.762 | 0.874 | 1.03 | 0.88 | 1.28 | 0.477 | 0.743 | 1.2 | 0.689 | 1.1 | 1.34 | 0.853 |
| 0.552 | 0.743 | 0.953 | LMIEEYLTKEP [BAG3_Y457_L462P] | 0.745 | 0.6 | 1.15 | 1.2 | 0.975 | 2.05 | 1.5 | 1.49 | 2.45 | 1.12 | 2.78 | 2.51 | 1.88 |
| 1.17 | 0.783 | 0.844 | LNLKEYNLVGG [GNAQ_Y356] | 0.685 | 0.529 | 0.307 | 0.357 | 0.411 | 1.23 | 0.485 | 0.561 | 0.709 | 0.424 | 0.793 | 0.867 | 0.698 |
| 0.727 | 0.86 | 1.66 | LNPLIYSLRNK [OR5R1_Y290] | 1.21 | 6.76 | 2.03 | 1.94 | 1.29 | 1.13 | 8.23 | 6.55 | 2.28 | 1.5 | 1.13 | 2.46 | 1.44 |
| 8.52 | 0.806 | 5.26 | LSERGYSFVTT [ACTA2_Y200_T196S] | 1.06 | 0.81 | 0.94 | 0.955 | 0.704 | 1.29 | 0.724 | 0.693 | 0.925 | 0.986 | 1.08 | 1.41 | 1.46 |
| 1.39 | 5.27 | 0.902 | MGHVNYGAYIN [GLB1_Y485_R482H] | 0.395 | 0.521 | 0.535 | 0.384 | 0.796 | 0.602 | 0.471 | 0.589 | 0.571 | 0.358 | 0.672 | 0.661 | 0.444 |
| 0.404 | 0.739 | 0.546 | MHDSNYVSKGS [PDGFRA_Y849] | 0.393 | 0.535 | 0.388 | 0.501 | 0.416 | 0.648 | 0.554 | 0.482 | 0.508 | 0.451 | 0.55 | 0.73 | 0.459 |
| 7.91 | 0.868 | 0.689 | MHLRQYELLGG [GNAS_Y391] | 0.507 | 0.464 | 0.75 | 0.558 | 0.453 | 0.663 | 0.506 | 0.516 | 0.541 | 0.773 | 0.634 | 0.869 | 0.705 |
| 1.05 | 1.49 | 1.64 | MKNQKYGRIIM [HSD17B4_Y143_K140N] | 0.341 | 0.424 | 0.376 | 0.433 | 0.34 | 0.527 | 0.439 | 0.301 | 0.54 | 0.301 | 0.587 | 0.646 | 0.386 |

The remaining lines, values behind:

| Sequence | SH2 binding enrichment (c-Src SH2) | SH2 binding enrichment (Grb2 SH2) | SH2 binding enrichment (SHP2-C SH2) | phosphorylation enrichment (Fer (mouse)) | phosphorylation enrichment (Fyn) | phosphorylation enrichment (EPHB1) | phosphorylation enrichment (FGFR1) | phosphorylation enrichment (EPHB2) | phosphorylation enrichment (AncSZ) | phosphorylation enrichment (Hck) | phosphorylation enrichment (c-Src) | phosphorylation enrichment (c-Abl (mouse)) | phosphorylation enrichment (MERTK) | phosphorylation enrichment (Jak2) | phosphorylation enrichment (Fes) | phosphorylation enrichment (FGFR3) |
| --- | --- | --- | --- | --- | --- | --- | --- | --- | --- | --- | --- | --- | --- | --- | --- | --- |
| LKLWDYRRGRC [WDR5B_Y239_S240R] | 0.415 | 0.705 | 0.399 | 0.605 | 0.604 | 0.664 | 0.681 | 0.857 | 0.871 | 0.541 | 0.672 | 0.728 | 0.708 | 0.683 | 0.757 | 0.699 |
| LLIMEYAKFGS [RET_Y806_V804M_YF] | 0.929 | 1.35 | 0.655 | 0.909 | 1.09 | 1.07 | 0.772 | 0.968 | 1.34 | 1.59 | 1.96 | 1.51 | 0.701 | 2.11 | 1.77 | 0.697 |
| LLKKMYLMLDN [STAT1_Y203] | 0.957 | 1.14 | 1.24 | 0.521 | 0.38 | 0.571 | 0.395 | 0.381 | 0.883 | 0.434 | 0.305 | 0.643 | 0.401 | 0.939 | 0.996 | 0.721 |
| LLVVVYKFRCF [PSEN1_Y154_L153V_YF] | 1.41 | 1.96 | 1.64 | 0.471 | 0.359 | 0.446 | 0.446 | 0.45 | 0.949 | 0.462 | 0.455 | 1.19 | 0.463 | 0.707 | 1.3 | 0.676 |
| LNEQHYGGLTG [PGAM4_Y92_R90Q] | 0.518 | 0.958 | 0.761 | 0.769 | 0.956 | 0.949 | 0.659 | 0.574 | 0.752 | 0.902 | 1.04 | 1.5 | 0.845 | 0.915 | 1.2 | 0.972 |
| LSGFCYRLSDQ [PDCD6_Y124_G123C] | 0.471 | 0.948 | 0.776 | 0.816 | 0.928 | 1.08 | 0.932 | 1.28 | 1.66 | 0.804 | 0.607 | 1.34 | 0.566 | 1.53 | 1.46 | 1.33 |
| LTFHMYADPNI [SOS1_Y618_F623I_YF] | 5.33 | 0.811 | 0.959 | 1.25 | 0.747 | 1.77 | 1.35 | 2.05 | 2.46 | 0.799 | 0.564 | 1.57 | 0.583 | 2.23 | 2.48 | 2.09 |
| LVSCAYQVARG [FGFR1_Y605] | 0.644 | 0.883 | 0.728 | 0.505 | 0.487 | 0.61 | 0.462 | 0.612 | 0.867 | 0.609 | 0.577 | 0.641 | 0.424 | 0.657 | 0.89 | 0.577 |
| LVSCTYQLARR [FGFR2_Y608_G613R] | 0.401 | 0.851 | 0.484 | 0.896 | 0.699 | 0.816 | 0.788 | 1.28 | 1.57 | 0.891 | 0.438 | 0.721 | 0.861 | 1.36 | 1.33 | 0.793 |
| LWQSIYNLDAE [TNNT2_Y251_E254D] | 0.456 | 0.771 | 0.639 | 0.513 | 9.69 | 0.883 | 0.658 | 1.18 | 1.38 | 6.38 | 6.55 | 0.706 | 0.497 | 0.981 | 1.2 | 0.784 |
| MAFDRYVAICS [OR8D4_Y123_C120Y_YF] | 1.08 | 0.724 | 0.64 | 0.563 | 0.515 | 0.905 | 0.463 | 0.762 | 1.15 | 0.665 | 0.489 | 0.78 | 0.507 | 1.07 | 1.14 | 0.726 |
| MAPQMYEFHLP [NCAPD2_Y6] | 0.411 | 0.656 | 0.582 | 19.6 | 0.506 | 4.23 | 0.443 | 3.16 | 0.795 | 0.624 | 0.655 | 0.473 | 5.35 | 0.592 | 0.766 | 0.719 |
| MAQDIYRASFF [ALK_Y1278_R1275Q_YF] | 0.456 | 1.04 | 0.738 | 0.446 | 1.52 | 0.353 | 0.462 | 0.499 | 0.683 | 2.06 | 2.28 | 12.2 | 0.66 | 0.711 | 0.69 | 0.482 |
| MEIHAYRKLSE [LMNA_Y376_L380S] | 0.432 | 0.718 | 0.641 | 0.39 | 0.356 | 0.379 | 0.371 | 0.459 | 0.729 | 0.466 | 0.384 | 0.641 | 0.342 | 0.678 | 0.788 | 0.495 |
| MEVGQYIFVKC [CYBB_Y324] | 0.539 | 0.781 | 0.651 | 0.708 | 0.599 | 0.835 | 2.8 | 0.723 | 1.74 | 0.582 | 0.463 | 1.01 | 0.511 | 1.53 | 1.53 | 2.43 |
| MGCVNYGAFIN [GLB1_Y485_R482C_YF] | 0.514 | 0.752 | 0.793 | 0.522 | 0.553 | 0.69 | 0.531 | 0.617 | 1.05 | 0.532 | 1.19 | 1.01 | 0.606 | 1.14 | 1.26 | 0.825 |
| MNLLGYRHVRS [CHST4_Y359] | 0.545 | 0.855 | 0.748 | 0.409 | 0.403 | 0.423 | 0.612 | 0.461 | 0.761 | 0.488 | 0.405 | 0.663 | 0.4 | 0.691 | 0.738 | 0.466 |
